Where two headings read alike, the source gives them in different places.
What was measured:
[1] = molecular target: T4 capsid (empty head isolated from 10-amber 13-amber hoc-del soc-del T4 phage-infected E. coli) (bacteriophage T4) (UniProt P04535); assay: Cas9-Soc-gRNA RNP co-displayed with Cre-Hoc on the same T4 capsid
[2] = molecular target: T4 capsid (empty head isolated from 10-amber 13-amber hoc-del soc-del T4 phage-infected E. coli) (bacteriophage T4) (UniProt P04535)
[3] = molecular target: T4 capsid (empty head isolated from 10-amber 13-amber hoc-del soc-del T4 phage-infected E. coli) (bacteriophage T4) (UniProt P04535); assay: Cas9-Soc in complex with gRNA displayed on T4 capsid
[4] = molecular target: T4 capsid (empty head isolated from 10-amber 13-amber hoc-del soc-del T4 phage-infected E. coli) (bacteriophage T4) (UniProt P04535); assay: Cas9-Soc in complex with siRNA displayed on T4 capsid
[5] = molecular target: T4 capsid (empty head isolated from 10-amber 13-amber hoc-del soc-del T4 phage-infected E. coli) (bacteriophage T4) (UniProt P04535); assay: in vitro display on T4 heads, sedimentation, SDS-PAGE densitometry with gp23* as internal control
[6] = molecular target: T4 capsid (empty head isolated from 10-amber 13-amber hoc-del soc-del T4 phage-infected E. coli) (bacteriophage T4) (UniProt P04535); assay: display on T4 capsids at increasing ratios, SDS-PAGE (FIG. 21)
[7] = molecular target: T4 capsid (empty head isolated from 10-amber 13-amber hoc-del soc-del T4 phage-infected E. coli) (bacteriophage T4) (UniProt P04535); assay: Cre-Hoc co-displayed with Cas9-Soc-gRNA RNP on the same T4 capsid
[8] = molecular target: T4 capsid (empty head isolated from 10-amber 13-amber hoc-del soc-del T4 phage-infected E. coli) (bacteriophage T4) (UniProt P04535); assay: copies displayed per T4 capsid, Soc-RGD against RGD-Hoc
[9] = molecular target: T4 capsid (empty head isolated from 10-amber 13-amber hoc-del soc-del T4 phage-infected E. coli) (bacteriophage T4) (UniProt P04535); assay: Soc-TAT displayed on T4(Luci) capsids used for transduction (FIG. 28)
[10] = molecular target: T4 capsid (empty head isolated from 10-amber 13-amber hoc-del soc-del T4 phage-infected E. coli) (bacteriophage T4) (UniProt P04535); assay: display on T4 capsids at increasing ratios, SDS-PAGE (FIG. 20)

“Cas9-Soc (SEQ ID NO: 16) (from UniProt Q99ZW2 1-1368)” showed a molecules per AV (molecules per capsid) [1] of 270, a Copies/ capsid (copies per capsid) [2] of 550 and a copies per capsid (copies per capsid) [3] of 280. The copies per capsid (copies per capsid) [4] was 280.

With Cpf1-Soc (SEQ ID NO: 17) the Copies/ capsid (copies per capsid) [5] was 450.

Cre-Hoc (SEQ ID NO: 18) was tested, and the ratio of protein molecules to binding sites at saturation (molecules per binding site) [6] was 15 to 20, the Copies/ capsid (copies per capsid) [2] was 95 and the molecules per AV (molecules per capsid) [7] was 50.

In the case of Cre-Soc (SEQ ID NO: 22), the Copies/ capsid (copies per capsid) [2] is reported as 630.

Substance GFP-Soc (from UniProt P03715 1-80) has a Copies/ capsid (copies per capsid) [2] of 660.

Work on “RGD-Hoc (SEQ ID NO: 19) (from UniProt P18056 1-376)” yielded a Copies/ capsid (copies per capsid) [5] of 85.

Soc-RGD (from UniProt P03715 1-80) gave a Copies/ capsid (copies per capsid) [2] of 710 and a fold copy number against RGD-Hoc [8] of 8.3 fold.

In the case of Soc-TAT (from UniProt P03715 1-80), the Copies/ capsid (copies per capsid) [2] is reported as 750 and the copies per capsid (copies per capsid) [9] is reported as 520.

“β-Gal-Soc (from UniProt P00722 2-1024; P03715 1-80) (enzyme)” showed a Copies/ capsid (copies per capsid) [2] of 320 and a ratio of protein molecules to binding sites at saturation (molecules per binding site) [10] of 15 to 20.

Source: patent EP4371564A2
